In experiment [1] the target is T1, rFVIIa/rTF/PLV complex (human, UniProt P08709 61-466; P13726 33-295).
T1 construct: Complex formed in HBSA with CaCl2 on phosphatidyl choline/phosphatidyl serine vesicles; also called fVIIa/TF; FVIIa/TF
As to the kind of experiment: rFVIIa/rTF/PLV amidolytic assay (S-2288), no FXa addition; apparent Ki*.

For experiment [2], the target named is T1, rFVIIa/rTF/PLV complex. Nature of the experiment: rFVIIa/rTF/PLV amidolytic assay (S-2288) plus 2.5 nM EGR-FXa; apparent Ki*.
A further experiment concerns the target human urokinase (human, UniProt P00749 156-431). Nature of the experiment: cell-based or functional assay.
Another experiment addresses human alpha-thrombin (human, UniProt P00734 328-622). Nature of the experiment: cell-based or functional assay.
Another experiment deals with human factor Xa (human, UniProt P00742 41-179; P00742 235-488). As to the kind of experiment: cell-based or functional assay.
The target in experiment [3] is recombinant tissue plasminogen activator (human, UniProt P00750 36-562). Nature of the experiment: cell-based or functional assay.
A further experiment addresses human Factor XIa (human, UniProt P03951 19-625). Nature of the experiment: cell-based or functional assay.
Experiment [4] addresses human activated protein C (human, UniProt P04070 43-461). Nature of the experiment: cell-based or functional assay.
The next experiment addresses human pancreatic trypsin (human, UniProt P07477 24-247). As to the kind of experiment: cell-based or functional assay.
The target of experiment [5] is bovine pancreatic chymotrypsin (bovine, UniProt P00766 1-245). Nature of the experiment: cell-based or functional assay.
The next experiment concerns the target human kallikrein (human, UniProt P03952 20-638). As to the kind of experiment: cell-based or functional assay.
For a further experiment, the target named is T2, human Factor XIIa (human, UniProt P00748 20-615).
T2 sequence: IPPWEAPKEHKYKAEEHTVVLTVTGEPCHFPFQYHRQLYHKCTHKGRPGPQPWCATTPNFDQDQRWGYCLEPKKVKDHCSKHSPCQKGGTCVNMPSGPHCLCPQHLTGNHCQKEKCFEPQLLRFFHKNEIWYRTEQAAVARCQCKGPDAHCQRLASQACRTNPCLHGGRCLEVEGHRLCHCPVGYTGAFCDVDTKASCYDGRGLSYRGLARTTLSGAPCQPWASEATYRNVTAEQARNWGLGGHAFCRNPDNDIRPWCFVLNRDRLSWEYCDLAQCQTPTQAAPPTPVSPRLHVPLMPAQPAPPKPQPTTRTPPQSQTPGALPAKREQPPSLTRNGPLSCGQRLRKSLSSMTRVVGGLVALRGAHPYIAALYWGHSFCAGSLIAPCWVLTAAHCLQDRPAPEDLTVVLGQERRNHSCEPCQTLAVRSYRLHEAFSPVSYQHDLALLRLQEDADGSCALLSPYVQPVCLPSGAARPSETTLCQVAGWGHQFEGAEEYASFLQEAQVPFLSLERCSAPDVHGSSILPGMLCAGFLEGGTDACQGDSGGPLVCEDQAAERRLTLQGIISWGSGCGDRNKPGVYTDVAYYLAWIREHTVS
Nature of the experiment: cell-based or functional assay.

The target of a further experiment is human plasmin (human, UniProt P00747 97-810). Nature of the experiment: cell-based or functional assay.
Chain of human plasmin (P00747 97-810 limits assumed): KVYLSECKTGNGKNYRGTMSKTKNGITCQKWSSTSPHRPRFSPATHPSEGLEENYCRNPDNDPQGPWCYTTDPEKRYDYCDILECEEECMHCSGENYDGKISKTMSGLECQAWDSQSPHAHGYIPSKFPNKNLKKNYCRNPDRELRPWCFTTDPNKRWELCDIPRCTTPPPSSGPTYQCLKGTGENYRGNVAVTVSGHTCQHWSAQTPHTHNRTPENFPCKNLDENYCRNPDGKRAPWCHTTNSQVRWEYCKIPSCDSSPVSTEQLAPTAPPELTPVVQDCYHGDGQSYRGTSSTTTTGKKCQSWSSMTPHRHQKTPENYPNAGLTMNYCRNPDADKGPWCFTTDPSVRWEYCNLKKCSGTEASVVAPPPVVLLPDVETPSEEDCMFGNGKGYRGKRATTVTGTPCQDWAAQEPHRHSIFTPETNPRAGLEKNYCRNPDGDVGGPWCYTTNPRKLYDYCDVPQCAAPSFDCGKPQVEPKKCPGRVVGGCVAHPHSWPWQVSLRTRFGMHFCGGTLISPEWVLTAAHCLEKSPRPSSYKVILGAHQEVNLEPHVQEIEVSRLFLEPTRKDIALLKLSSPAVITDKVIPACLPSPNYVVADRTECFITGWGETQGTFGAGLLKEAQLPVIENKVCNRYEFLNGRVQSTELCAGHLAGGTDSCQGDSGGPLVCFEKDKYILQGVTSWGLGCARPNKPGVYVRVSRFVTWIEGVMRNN

T1 sequence (P08709 61-466 limits assumed, chain 1 of 2): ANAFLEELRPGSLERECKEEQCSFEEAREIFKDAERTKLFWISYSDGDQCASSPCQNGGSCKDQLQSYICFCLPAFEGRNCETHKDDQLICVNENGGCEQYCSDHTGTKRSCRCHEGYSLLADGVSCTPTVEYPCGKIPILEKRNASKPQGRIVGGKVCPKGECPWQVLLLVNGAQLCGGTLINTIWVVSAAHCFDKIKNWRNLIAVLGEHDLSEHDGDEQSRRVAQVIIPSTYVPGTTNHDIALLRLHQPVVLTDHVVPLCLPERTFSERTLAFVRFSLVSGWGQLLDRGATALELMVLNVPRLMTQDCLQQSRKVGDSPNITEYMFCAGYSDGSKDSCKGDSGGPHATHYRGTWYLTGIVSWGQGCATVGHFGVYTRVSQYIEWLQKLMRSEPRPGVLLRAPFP
T1 sequence (P13726 33-295 limits assumed, chain 2 of 2): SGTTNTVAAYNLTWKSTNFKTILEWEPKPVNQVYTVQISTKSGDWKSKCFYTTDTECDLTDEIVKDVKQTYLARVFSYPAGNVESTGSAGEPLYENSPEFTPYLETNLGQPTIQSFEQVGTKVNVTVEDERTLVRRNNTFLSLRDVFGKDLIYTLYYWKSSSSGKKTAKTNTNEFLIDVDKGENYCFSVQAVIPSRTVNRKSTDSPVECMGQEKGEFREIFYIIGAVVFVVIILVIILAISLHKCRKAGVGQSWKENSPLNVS
Chain of human factor Xa (P00742 41-179 limits assumed, chain 1 of 2): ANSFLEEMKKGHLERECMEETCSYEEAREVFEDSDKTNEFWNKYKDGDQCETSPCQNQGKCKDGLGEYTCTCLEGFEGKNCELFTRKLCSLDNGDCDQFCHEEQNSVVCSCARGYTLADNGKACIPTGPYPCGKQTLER
Chain of human factor Xa (P00742 235-488 limits assumed, chain 2 of 2): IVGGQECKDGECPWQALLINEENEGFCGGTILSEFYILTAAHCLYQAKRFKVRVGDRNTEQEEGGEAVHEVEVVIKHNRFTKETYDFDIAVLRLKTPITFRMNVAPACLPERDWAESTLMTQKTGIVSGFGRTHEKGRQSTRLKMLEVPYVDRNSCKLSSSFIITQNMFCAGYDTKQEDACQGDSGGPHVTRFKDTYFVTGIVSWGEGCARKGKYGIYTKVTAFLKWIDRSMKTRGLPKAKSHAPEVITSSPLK
Chain of human kallikrein (P03952 20-638 limits assumed): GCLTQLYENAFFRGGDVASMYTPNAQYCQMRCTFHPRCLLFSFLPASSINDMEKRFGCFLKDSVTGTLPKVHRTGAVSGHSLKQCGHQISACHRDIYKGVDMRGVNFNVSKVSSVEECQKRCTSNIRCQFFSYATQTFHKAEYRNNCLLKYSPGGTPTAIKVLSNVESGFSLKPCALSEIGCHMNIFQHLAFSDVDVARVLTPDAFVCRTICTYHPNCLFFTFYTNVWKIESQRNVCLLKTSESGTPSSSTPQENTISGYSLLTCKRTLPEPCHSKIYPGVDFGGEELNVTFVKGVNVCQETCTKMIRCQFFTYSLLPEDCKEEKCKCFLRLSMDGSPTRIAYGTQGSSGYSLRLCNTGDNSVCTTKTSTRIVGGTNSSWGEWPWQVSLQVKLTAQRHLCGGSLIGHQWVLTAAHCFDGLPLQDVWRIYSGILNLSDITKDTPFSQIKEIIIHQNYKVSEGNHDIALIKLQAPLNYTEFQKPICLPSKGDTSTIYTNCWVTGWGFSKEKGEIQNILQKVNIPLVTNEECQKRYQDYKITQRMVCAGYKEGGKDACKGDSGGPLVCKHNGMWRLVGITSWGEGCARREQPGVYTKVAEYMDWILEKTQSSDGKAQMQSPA
Chain of recombinant tissue plasminogen activator (P00750 36-562 limits assumed): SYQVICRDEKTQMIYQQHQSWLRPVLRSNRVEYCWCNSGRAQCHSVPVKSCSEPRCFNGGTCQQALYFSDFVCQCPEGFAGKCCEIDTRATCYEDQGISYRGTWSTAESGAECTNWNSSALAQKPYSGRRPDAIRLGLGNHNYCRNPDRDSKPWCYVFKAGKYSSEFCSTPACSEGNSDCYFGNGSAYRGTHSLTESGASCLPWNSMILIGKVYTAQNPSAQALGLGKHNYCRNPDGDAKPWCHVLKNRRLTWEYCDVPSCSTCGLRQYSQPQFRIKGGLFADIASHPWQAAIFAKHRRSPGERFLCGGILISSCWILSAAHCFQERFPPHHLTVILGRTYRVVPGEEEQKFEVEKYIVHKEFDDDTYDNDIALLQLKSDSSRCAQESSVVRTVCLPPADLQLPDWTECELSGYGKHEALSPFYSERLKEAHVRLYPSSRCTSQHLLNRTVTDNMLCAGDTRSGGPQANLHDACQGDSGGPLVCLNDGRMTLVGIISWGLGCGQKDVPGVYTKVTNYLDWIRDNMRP

B1: recombinant AceNAP4 (other)
chain: KPNNVMTNACGLNEYFAECGNMKECEHRCNEEENEERDEERITACLIRVCFRPGACVCKDGFYRNRTGSCVEEDDCEYENMEFITFAPEVPICGSNERYSDCGNDKQCERKCNEDDYEKGDEACRSHVCERPGACVCEDGFYRNKKGSCVESDDCEYDNMDFITFAPETSR
notes: Two NAP domains
For the molecule B1, the Ki turned out to be 59.2 nM with rFVIIa/rTF/PLV complex [1] and 0.378 nM with rFVIIa/rTF/PLV complex [2]. Also, the “% Control Velocity (amidolytic activity; 75 nM NAP, 750 pM enzyme)” value was determined as 103% with human urokinase; 93% in the experiment with human alpha-thrombin; 76% with human factor Xa; 108% in experiment [3]; 96% with human Factor XIa; 103% in experiment [4]. The “% Control Velocity (amidolytic activity; 75 nM NAP, 750 pM enzyme)” value with human pancreatic trypsin is 98%; in experiment [5], 96%; with human kallikrein it was 32%; with human Factor XIIa, 102%; in the experiment with human plasmin, 100%.

These data come from patent US6872808 (CORVAS INTERNATIONAL, dated 2005).
